Laboratory results taken from patent publication US20170298096A1 (CANIMGUIDE THERAPEUTICS, published 2017).

Molecular target: T1, His-tagged P3028 peptide (PGE73) (human)
T1 construct: albumin-derived peptide, in solution at 0.5 ug/mL; not shown: His-tag
T1 peptide: VFDEFKPLVEEPQNLIK
Test: PEPSCAN ELISA, peptide on card

Point of comparison: KKLDTFFVKLSLMTER (also called 30677) [SEQ ID NO: 367 KKLDTFFVKLSLMTER], “RAMPO Score” value 1190. Against it:
- KKLDTFFGKLSLFTER [SEQ ID NO: 327 KKLDTFFGKLSLFTER] — lower, 379
- KKLDTFFVKLSLCTER [SEQ ID NO: 362 KKLDTFFVKLSLCTER] — lower, 400
- KKLDTFFVKVSLFTER [SEQ ID NO: 343 KKLDTFFVKVSLFTER] — lower, 658
- KKLDTFFVKLSLTTER [SEQ ID NO: 373 KKLDTFFVKLSLTTER] — lower, 494
- KKLDTFFVKLSLFTEN [SEQ ID NO: 390 KKLDTFFVKLSLFTEN] — lower, 311
- KKLDTFFLKLSLFTER [SEQ ID NO: 328 KKLDTFFLKLSLFTER] — lower, 411
- KKLDTFFVKLSLFHER [SEQ ID NO: 378 KKLDTFFVKLSLFHER] — lower, 463
- KKLDTFFVKLSTFTER [SEQ ID NO: 358 KKLDTFFVKLSTFTER] — lower, 437
- KKLDTFFVKMSLFTER [SEQ ID NO: 336 KKLDTFFVKMSLFTER] — lower, 460
- KKLDTFFVKSSLFTER [SEQ ID NO: 341 KKLDTFFVKSSLFTER] — lower, 351
- KKLDTFFVKLSLGTER [SEQ ID NO: 363 KKLDTFFVKLSLGTER] — lower, 531
- KKLDTFFVKLSRFTER [SEQ ID NO: 356 KKLDTFFVKLSRFTER] — lower, 483
- KKLDTFFVKLSIFTER [SEQ ID NO: 352 KKLDTFFVKLSIFTER] — lower, 456
- KKLDTFFVKLSQFTER [SEQ ID NO: 355 KKLDTFFVKLSQFTER] — lower, 651
- KKLDTFFVKLSLFTEF [SEQ ID NO: 388 KKLDTFFVKLSLFTEF] — lower, 297
- KKLDTFFVKLSLVTER [SEQ ID NO: 374 KKLDTFFVKLSLVTER] — lower, 446
- KKLDTFFVKISLFTER [SEQ ID NO: 335 KKLDTFFVKISLFTER] — lower, 415
- KKLDTFFVKLMLFTER [SEQ ID NO: 346 KKLDTFFVKLMLFTER] — lower, 744
- KKLDTFFVKYSLFTER [SEQ ID NO: 344 KKLDTFFVKYSLFTER] — lower, 382
- KKLDTFFVKLSMFTER [SEQ ID NO: 353 KKLDTFFVKLSMFTER] — lower, 499
- KKLDTFFVKLSLFWER [SEQ ID NO: 386 KKLDTFFVKLSLFWER] — lower, 374
- KKLDTFFVKLSLFTET [SEQ ID NO: 392 KKLDTFFVKLSLFTET] — lower, 292
- KKLDTFFVKLSLFSER [SEQ ID NO: 384 KKLDTFFVKLSLFSER] — lower, 369
- KKLDTFFVKLSLSTER [SEQ ID NO: 372 KKLDTFFVKLSLSTER] — lower, 635
- KKLDTFFVKLSLFLER [SEQ ID NO: 380 KKLDTFFVKLSLFLER] — lower, 360
- KKLDTFFVKLSHFTER [SEQ ID NO: 351 KKLDTFFVKLSHFTER] — lower, 460
- KKLDTFFVKLSLFIER [SEQ ID NO: 379 KKLDTFFVKLSLFIER] — lower, 375
- KKLDTFFVKLHLFTER [SEQ ID NO: 345 KKLDTFFVKLHLFTER] — lower, 535
- KKLDTFFVKNSLFTER [SEQ ID NO: 337 KKLDTFFVKNSLFTER] — lower, 365
- KKLDTFFVKFSLFTER [SEQ ID NO: 333 KKLDTFFVKFSLFTER] — lower, 403
- KKLDTFFRKLSLFTER [SEQ ID NO: 330 KKLDTFFRKLSLFTER] — lower, 365
- KKLDTFFVKLSNFTER [SEQ ID NO: 354 KKLDTFFVKLSNFTER] — lower, 462
- KKLDTFFVKLSLLTER [SEQ ID NO: 366 KKLDTFFVKLSLLTER] — lower, 448
- KKLDTFFVKLSLITER [SEQ ID NO: 365 KKLDTFFVKLSLITER] — lower, 468
- KKLDTFFVKLSLFPER [SEQ ID NO: 383 KKLDTFFVKLSLFPER] — lower, 551
- KKLDTFFVKLSLFNER [SEQ ID NO: 382 KKLDTFFVKLSLFNER] — lower, 599
- KKLDTFFPKLSLFTER (also called 32251) [SEQ ID NO: 329 KKLDTFFPKLSLFTER] — lower, 456
- KKLDTFFVKLQLFTER (also called 30678) [SEQ ID NO: 348 KKLDTFFVKLQLFTER] — lower, 768
- KKLDTFFVKLSLQTER [SEQ ID NO: 370 KKLDTFFVKLSLQTER] — lower, 1140
- KKLDTFFVKLSLHTER [SEQ ID NO: 364 KKLDTFFVKLSLHTER] — lower, 1050
- KKLDTFFVKLSLPTER [SEQ ID NO: 369 KKLDTFFVKLSLPTER] — lower, 696
- KKLDTFFVKLSLFFER [SEQ ID NO: 376 KKLDTFFVKLSLFFER] — lower, 348
- KKLDTFFVKLSLNTER [SEQ ID NO: 368 KKLDTFFVKLSLNTER] — lower, 862
- KKLDTFFVKLTLFTER [SEQ ID NO: 349 KKLDTFFVKLTLFTER] — lower, 520
- KKLDTFFVKLSLWTER [SEQ ID NO: 375 KKLDTFFVKLSLWTER] — lower, 430
- KKLDTFFVKLSLFGER [SEQ ID NO: 377 KKLDTFFVKLSLFGER] — lower, 343
- KKLDTFFVKLSLATER [SEQ ID NO: 361 KKLDTFFVKLSLATER] — lower, 525
- KKLDTFFVKQSLFTER [SEQ ID NO: 339 KKLDTFFVKQSLFTER] — lower, 470
- KKLDTFFVKASLFTER [SEQ ID NO: 332 KKLDTFFVKASLFTER] — lower, 426
- KKLDTFFVKLSSFTER [SEQ ID NO: 357 KKLDTFFVKLSSFTER] — lower, 478
- KKLDTFFVKLSVFTER [SEQ ID NO: 359 KKLDTFFVKLSVFTER] — lower, 545
- KKLDTFFVKLSLRTER [SEQ ID NO: 371 KKLDTFFVKLSLRTER] — lower, 502
- KKLDTFFVKLSLFTEK [SEQ ID NO: 389 KKLDTFFVKLSLFTEK] — lower, 291
- KKLDTFFVKLNLFTER [SEQ ID NO: 347 KKLDTFFVKLNLFTER] — lower, 451
- KKLDTFFVKGSLFTER [SEQ ID NO: 334 KKLDTFFVKGSLFTER] — lower, 495
- KKLDTFFVKLSAFTER [SEQ ID NO: 350 KKLDTFFVKLSAFTER] — lower, 462
- KKLDTFFVRLSLFTER [SEQ ID NO: 331 KKLDTFFVRLSLFTER] — lower, 374
- KKLDTFFVKLSLFMER [SEQ ID NO: 381 KKLDTFFVKLSLFMER] — lower, 501
- KKLDTFFVKRSLFTER [SEQ ID NO: 340 KKLDTFFVKRSLFTER] — lower, 439
- KKLDTFFVKLSLFVER [SEQ ID NO: 385 KKLDTFFVKLSLFVER] — lower, 380
- KKLDTFFVKLSWFTER [SEQ ID NO: 360 KKLDTFFVKLSWFTER] — lower, 409
- KKLDTFFVKTSLFTER [SEQ ID NO: 342 KKLDTFFVKTSLFTER] — lower, 399
- KKLDTFFVKLSLFTDR [SEQ ID NO: 387 KKLDTFFVKLSLFTDR] — lower, 404
- KKLDTFFVKPSLFTER [SEQ ID NO: 338 KKLDTFFVKPSLFTER] — lower, 436
